Results reported in the supplement of paper PMC10567573.

B1: VAMP4 (parent)
chain: IMALVAAILLLVIIILIVMKYRT
B2: SFRS1 (parent)
chain: YSPRRSRGSPRYSPRHSRSRSRT

Variants of: B1
Assay: protein stability index of a GFP-peptide fusion (GPS, HEK-293T) (PSI 1-6); higher = more stable
Settings: c terminus: native
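Further: lentivirally expressed fusions sorted by FACS into six bins by GFP to DsRed ratio, PSI derived from sequencing read proportions per bin multiplied by bin number.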

Protein stability index of substitutions, site by site:
R22: G 3.6; L 3.4; M 4.08; I 3.65; N 3.2; A 3.96; T 3.93; F 3.85; P 3.06; W 4.25; S 3.82; D 4.01; E 3.24; H 3.86; V 3.7; Y 3.56; K 3.58; C 4.02; Q 3.39
T23: E 2.74; S 3.11; L 3.06; H 3.48; P 3.28; V 3.3; R 2.99; K 2.31; M 3.39; I 2.95; Y 3.37; A 3.69; D 3.27; F 3.3; G 3.81; W 3.69; Q 3.1; C 3.53; N 3.18
V18: Y 2.97; N 2.33; T 2.87; R 1.27; G 2.66; S 2.56; H 2.38; K 1.68; F 3.09; D 2.85; Q 2.04; P 2.72; I 3.54; L 3.26; M 3.39; A 2.6; E 2.91; C 2.93; W 3.21
I15: N 1.95; P 3.92; Y 2.26; L 3.26; T 3.08; F 2.79; E 2.43; H 1.69; R 1.9; Q 1.89; S 2.65; K 2.04; M 2.88; V 3.25; W 1.84; G 2.98
M19: D 3.19; N 3.33; I 3.64; G 2.99; Q 2.51; L 3.68; R 2.91; A 2.88; S 3.33; E 3.07; P 2.66; C 2.78; Y 3.09; H 3.08; W 3.11; F 3.48; V 3.41; K 2.77; T 2.72
I17: Q 2.31; M 3.45; T 3.26; D 1.74; N 2.79; V 3.11; H 1.85; P 2.77; F 2.58; E 2.57; A 3.54; R 2.33; G 2.83; K 2.9; W 2.44; L 2.96; S 3.07; Y 2.21; C 3.11
K20: Q 2.82; Y 3.38; I 3.75; M 3.62; R 3.15; C 3.3; S 4.02; A 3.68; F 3.67; G 3.37; D 3.1; T 3.59; V 4.06; W 4.14; H 3.54; N 3.25; P 2.62; E 3.49; L 2.93
Y21: L 3.28; C 3.21; M 3.42; E 2.71; A 3.11; F 3.56; G 3.22; Q 2.99; V 2.96; N 3.32; P 2.98; R 1.81; H 2.58; S 3.37; I 3.26; D 2.84; T 3.13; K 1.98; W 3.48
L16: G 3.18; S 3.5; F 3.6; H 3.18; Q 3.13; R 2.33; V 3.35; P 3.2; A 3.57; K 2.73; T 3.47; E 3.2; D 2.44; M 2.39; Y 3.25; N 2.73; W 3.28; I 3.44; C 3.65

Variants of: B2
Assay: as above
Settings: c terminus: native

Protein stability index, by site and new letter:
R5: D 3.53; I 2.33; H 4.37; F 2.52; P 2.75; E 3.54; S 3.76; Q 3.5; K 3.14; L 2.58; G 3; N 3.24; T 2.8; V 2.87; A 3.98; Y 3.01; M 3.58; C 2.92; W 1.84
S2: W 4.07; L 4.2; H 2.75; D 4.09; Y 3.62; P 3.71; Q 3.98; T 3.19; K 3.9; N 3.54; R 4.84; E 4.12; V 1.85; G 4.27; C 1.94; I 3.27; A 2; F 3.52; M 3.77
R7: L 2.03; I 1.66; C 1.95; Q 3.54; Y 3.38; K 3.77; D 3.22; F 2.43; M 2.47; P 2.91; W 1.95; E 2.15; A 2.97; H 2.61; V 2.24; G 2.47; T 3.13; N 2.92; S 3.4
S6: H 3.66; L 2.65; R 4.01; W 3.43; D 3.83; Y 3.29; V 3.09; M 3.56; N 3.97; I 3.22; F 3.27; T 4.02; K 3.01; Q 4.33; E 3.26; G 3.55; C 2.81; P 4.39; A 4.13
Y1: D 3.9; A 4.29; S 4.36; Q 4.55; I 4.17; N 5.03; V 4.65; F 2.96; M 3.9; H 4.86; T 4.43; W 4.08; P 4.55; K 4.1; R 5.25; G 4.65; L 3.74; E 3.92; C 3.99
R4: S 3.56; K 3.71; V 3.24; W 2.38; D 2.74; C 2.28; N 3.13; Q 3.53; M 2.76; T 2.83; L 2.76; P 3.36; I 2.65; E 3.12; H 3.29; A 2.82; G 3.82; F 2.57; Y 2.56
P3: S 4.21; I 2.8; F 3.91; D 4.51; E 4.18; L 3.8; W 3.11; C 3.4; N 4.15; A 3.81; Y 4.24; G 4.3; M 3.58; R 4.27; H 4.16; Q 3.72; K 3.56; T 4.22; V 4.06
S9: I 3.1; D 3.99; Q 4.24; N 4.23; M 3.07; P 3.86; C 1.83; L 3.38; G 4.24; K 3.83; A 3.94; F 3.35; H 3.16; E 3.71
G8: Y 3.05; D 3.45; P 3.5; C 2.98; Q 3.53; R 4.58; A 4.22; I 3.46; E 3.44; H 3.55; T 3.79; F 2.13; K 3.98; N 3.7; M 3.19; L 3; V 3.31; S 4.32; W 2.25
